# B1: CAR10 (chimeric antigen receptor with anti-EGFRvIII clone 139 scFv), expressed on Jurkat E6 cells or primary human T cells (other)
# chain: DIQMTQSPSSLSASVGDRVTITCRASQGIRNNLAWYQQKPGKAPKRLIYAASNLQSGVPSRFTGSGSGTEFTLIVSSLQPEDFATYYCLQHHSYPLTSGGGTKVEIKRTGSTSGSGKPGSGEGSEVQVLESGGGLVQPGGSLRLSCAASGFTFSSYAMSWVRQAPGKGLEWVSAISGSGGSTNYADSVKGRFTISRDNSKNTLYLQMNSLRAEDTAVYYCAGSSGWSEYWGQGTLVTVSSTTTPAPRPPTPAPTIASQPLSLRPEACRPAAGGAVHTRGLDFACDIYIWAPLAGTCGVLLLSLVITLYCKRGRKKLLYIFKQPFMRPVQTTQEEDGCSCRFPEEEEGGCELRVKFSRSADAPAYKQGQNQLYNELNLGRREEYDVLDKRRGRDPEMGGKPRRKNPQEGLYNELQKDKMAEAYSEIGMKGERRRGKGHDGLYQGLSTATKDTYDALHMQALPPR
# B2: CAR1 soluble scFv (humanized anti-EGFRvIII scFv, VH1-VK4) (scFv)
# scFv: EIQLVQSGAEVKKPGATVKISCKGSGFNIEDYYIHWVQQAPGKGLEWMGRIDPENDETKYGPIFQGRVTITADTSTNTVYMELSSLRSEDTAVYYCAFRGGVYWGQGTTVTVSSGGGGSGGGGSGGGGSGGGGSDVVMTQSPDSLAVSLGERATINCKSSQSLLDSDGKTYLNWLQQKPGQPPKRLISLVSKLDSGVPDRFSGSGSGTDFTLTISSLQAEDVAVYYCWQGTHFPGTFGGGTKVEIKGSHHHHHHHH
# notes: not tied in words; also called CAR1 scFv
# B3: CAR8 soluble scFv (humanized anti-EGFRvIII scFv, VK2-VH1) (scFv)
# scFv: DVVMTQSPLSLPVTLGQPASISCKSSQSLLDSDGKTYLNWLQQRPGQSPRRLISLVSKLDSGVPDRFSGSGSGTDFTLKISRVEAEDVGVYYCWQGTHFPGTFGGGTKVEIKGGGGSGGGGSGGGGSGGGGSEIQLVQSGAEVKKPGATVKISCKGSGFNIEDYYIHWVQQAPGKGLEWMGRIDPENDETKYGPIFQGRVTITADTSTNTVYMELSSLRSEDTAVYYCAFRGGVYWGQGTTVTVSSGSHHHHHHHH
# notes: also called CAR8 scFv
# B4: CAR2 soluble scFv (humanized anti-EGFRvIII scFv, VK4-VH1) (scFv)
# scFv: DVVMTQSPDSLAVSLGERATINCKSSQSLLDSDGKTYLNWLQQKPGQPPKRLISLVSKLDSGVPDRFSGSGSGTDFTLTISSLQAEDVAVYYCWQGTHFPGTFGGGTKVEIKGGGGSGGGGSGGGGSGGGGSEIQLVQSGAEVKKPGATVKISCKGSGFNIEDYYIHWVQQAPGKGLEWMGRIDPENDETKYGPIFQGRVTITADTSTNTVYMELSSLRSEDTAVYYCAFRGGVYWGQGTTVTVSSGSHHHHHHHH
# notes: also called CAR2 scFv
# B5: CAR4 soluble scFv (humanized anti-EGFRvIII scFv, VK2-VH5) (scFv)
# scFv: DVVMTQSPLSLPVTLGQPASISCKSSQSLLDSDGKTYLNWLQQRPGQSPRRLISLVSKLDSGVPDRFSGSGSGTDFTLKISRVEAEDVGVYYCWQGTHFPGTFGGGTKVEIKGGGGSGGGGSGGGGSGGGGSEIQLVQSGAEVKKPGESLRISCKGSGFNIEDYYIHWVRQMPGKGLEWMGRIDPENDETKYGPIFQGHVTISADTSINTVYLQWSSLKASDTAMYYCAFRGGVYWGQGTTVTVSSGSHHHHHHHH
# notes: also called CAR4 scFv
# B6: CAR3 soluble scFv (humanized anti-EGFRvIII scFv, VH5-VK2) (scFv)
# scFv: EIQLVQSGAEVKKPGESLRISCKGSGFNIEDYYIHWVRQMPGKGLEWMGRIDPENDETKYGPIFQGHVTISADTSINTVYLQWSSLKASDTAMYYCAFRGGVYWGQGTTVTVSSGGGGSGGGGSGGGGSGGGGSDVVMTQSPLSLPVTLGQPASISCKSSQSLLDSDGKTYLNWLQQRPGQSPRRLISLVSKLDSGVPDRFSGSGSGTDFTLKISRVEAEDVGVYYCWQGTHFPGTFGGGTKVEIKGSHHHHHHHH
# notes: also called CAR3 scFv
# B7: CAR5 soluble scFv (humanized anti-EGFRvIII scFv, VH1-VK2) (scFv)
# scFv: EIQLVQSGAEVKKPGATVKISCKGSGFNIEDYYIHWVQQAPGKGLEWMGRIDPENDETKYGPIFQGRVTITADTSTNTVYMELSSLRSEDTAVYYCAFRGGVYWGQGTTVTVSSGGGGSGGGGSGGGGSGGGGSDVVMTQSPLSLPVTLGQPASISCKSSQSLLDSDGKTYLNWLQQRPGQSPRRLISLVSKLDSGVPDRFSGSGSGTDFTLKISRVEAEDVGVYYCWQGTHFPGTFGGGTKVEIKGSHHHHHHHH
# notes: also called CAR5 scFv
# Biological target: T1, EGFRvIII-Fc fusion protein (UniProt P00533 25-645, limits assumed)
# T1 construct: not shown: detected with PE anti-human IgG Fc
# Test: flow cytometry, Jurkat E6 cells electroporated with CAR vector, titrated EGFRvIII-Fc, PE anti-human IgG Fc
# Method: Jurkat E6 cells were electroporated with either CAR9 vector or CAR10 vector using Amaxa Cell Line Nucleofector Kit V (Lonza, Colgne AG, Germany) and program X-001. One day after the transfection, 0.5×10⁶ cells were placed into each well of a V-shape 96 well plate (Greiner Bio-One, Germany) in 0.2 ml FACS buffer (DPBS buffer containing 5% FBS) and incubated for 10 minutes at room temperature. Cells were then spun down and resuspended in 0.2 ml of the FACS buffer with different concentrations of EGFRvIII-Fc or EGFRwt-Fc and incubated at 4° C. for 30 minutes. Cells were then washed with FACS buffer three times, and incubated with 0.2 ml of the FACS buffer with 2 μl of PE anti-human IgG Fc (Jackson ImmunoResearch Laboratories, West Grove, Pa.) for 30 minutes at 4° C. in the dark. After washing with 0.2 ml of FACS buffer three times, cells were analyzed on a LSRII (BD Biosciences, San Jose, Calif.) machine using the FACSDiva software (BD Biosciences, San Jose, Calif.). Immunofluorescence staining was analyzed as the relative log fluorescence of live cells, and the percentage of the PE positive cells were measured.
row,fold lower binding compared to CAR9,Binder
1,~40 fold,B1

# Biological target: T2, wild type hEGFR (human EGFR wild type) on transiently transfected HEK293F cells (human, UniProt P00533 25-1210)
# T2 construct: whole, on cells; also called wild type EGFR
# Test: FACS, purified His-tagged scFv on HEK293F cells transiently transfected with wild type hEGFR, anti-poly His PE
# Method: (§1) HEK293F suspension cells were transiently transfected with either wild type hEGFR or hEGFRvIII and were harvested 2 days after transfection. Approximately 5e5 cells/per well were transferred to a BD Falcon 96 well plate. The cells were spun down at 900 rpm (Sorval Legend XT centrifuge) for 3 minutes. The supernatant was removed. Anti-EGFRvIII scFv protein samples were diluted in DPBS with 5% FBS. The samples were added into the wells, mixed and incubated for 1 hour. The cells were washed twice in the DPBS with 5% FBS. The cells were incubated with anti-poly His PE (R&D) for 1 hour, washed twice before FACS analysis (LSRII from BD Biosciences).
row,binding result,Binder
1,no binding,B2
2,no binding,B3
3,no binding,B4
4,no binding,B5
5,no binding,B6
6,no binding,B7

# Biological target: T3, hEGFRvIII (human epidermal growth factor receptor variant III) on transiently transfected HEK293F cells (human, UniProt P00533 25-1210)
# T3 construct: whole, on cells; also called human EGFRvIII
# Test: FACS, purified His-tagged scFv on HEK293F cells transiently transfected with hEGFRvIII, anti-poly His PE
# Method: as §1
row,binding result,Binder
1,binds,B2
2,binds,B3
3,binds,B4
4,binds,B5
5,binds,B6
6,binds,B7

# Source: patent US20220088075A1 (University of Pennsylvania, published 2022)
